Laboratory results published in patent US20250051465A1 (published 2025).

B1: H4H18449P2 (antibody, human IgG4, V domains shown)
VH: EVQLVESGGGLVQPGGSLRLSCVASGFTFNKYDMHWVRQTTGKGLEWVSGIDTDGDTYYPGSVKGRFTISRENAENSLYLQMNGLRVGDTAVYYCARWPWSGFYGAFDIWGQGTMVTVSS
VL: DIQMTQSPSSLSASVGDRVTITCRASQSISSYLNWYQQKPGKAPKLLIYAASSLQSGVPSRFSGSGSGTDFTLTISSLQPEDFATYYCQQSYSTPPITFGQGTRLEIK
notes: Fully human antibody with human IgG4 Fc (H4H prefix)
B2: H4H18445P2 (antibody, human IgG4, V domains shown)
VH: QVQLQESGPGLVKPSQTLSLTCTVSGGSISSGGDYWSWIRQLPGKGLEWIGYIYYSGSAYYNPSLKSRGTISIDTSKNQFSLKLTSVTAADTAVYFCVKLRFLEWFLGGWFGPWGQGTLVTVSS
VL: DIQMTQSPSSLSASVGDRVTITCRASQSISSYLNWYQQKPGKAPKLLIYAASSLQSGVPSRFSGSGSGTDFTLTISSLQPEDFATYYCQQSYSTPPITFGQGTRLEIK
notes: as for B1
B3: H4H18438P2 (antibody, human IgG4, V domains shown)
VH: QVQLVESGGGVVQPGRSLRLSCAASGFSFNTYGMHWVRQAPGKGLEWVTIIWYDGSIKYYADSVKGRFTISRDNSKNTLYLQMNSLRAEDTAVYYCARGGYSGYLYFDYWGQGTLVTVSS
VL: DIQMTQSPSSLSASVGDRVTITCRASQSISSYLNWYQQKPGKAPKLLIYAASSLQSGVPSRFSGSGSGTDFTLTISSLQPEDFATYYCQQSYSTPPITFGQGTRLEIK
notes: as for B1
B4: H4H18446P2 (antibody, human IgG4, V domains shown)
VH: EVQLVESGGGLVQPGGSLRLSCAASGFTFSNYGMTWVRQAPGKGLEWVSAITGGGGSTYYSNSVKGRFTISRDNSKNTVYLRMNSVRAEDTAVYYCAKYKWNFVDDWGQGTTVTVSS
VL: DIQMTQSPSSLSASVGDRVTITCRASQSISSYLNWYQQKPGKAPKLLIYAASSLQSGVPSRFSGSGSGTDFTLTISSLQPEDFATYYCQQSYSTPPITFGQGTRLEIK
notes: as for B1

How the values were obtained:
[1] = molecular target: T1, human LEPR extracellular domain expressed with a C-terminal myc-myc-hexahistidine tag (hLEPR.mmh) (human, UniProt P48357 22-839); test: SPR, captured mAb, 37C
T1 construct: also called human LEPR-MMH; monomeric human LEPR
Procedure: (§1) Equilibrium dissociation constants (KD values) for LEPR binding to purified anti-LEPR monoclonal antibodies were determined using a real-time surface plasmon resonance biosensor using a Biacore 4000 instrument. All binding studies were performed in 10 mM HEPES, 150 mM NaCl, 3 mM EDTA, and 0.05% v/v Surfactant Tween-20, pH 7.4 (HBS-ET) running buffer at 25° C. and 37° C. The Biacore sensor surface was first derivatized by amine coupling with a monoclonal mouse anti-human Fc antibody (GE, #BR-1008-39) to capture anti-LEPR monoclonal antibodies. […] Kinetic association (kₐ) and dissociation (kd) rate constants were determined by fitting the real-time binding sensorgrams to a 1:1 binding model with mass transport limitation using Scrubber 2.0c curve-fitting software. Binding dissociation equilibrium constants (KD) and dissociative half-lives (t½) were calculated from the kinetic rate constants as: […]

[2] = molecular target: T2, human LEPR extracellular domain expressed with a C-terminal mouse IgG2a Fc tag (hLEPR.mFc) (human); test: SPR, captured mAb, 37C
T2 construct: also called dimeric human LEPR
T2 chain: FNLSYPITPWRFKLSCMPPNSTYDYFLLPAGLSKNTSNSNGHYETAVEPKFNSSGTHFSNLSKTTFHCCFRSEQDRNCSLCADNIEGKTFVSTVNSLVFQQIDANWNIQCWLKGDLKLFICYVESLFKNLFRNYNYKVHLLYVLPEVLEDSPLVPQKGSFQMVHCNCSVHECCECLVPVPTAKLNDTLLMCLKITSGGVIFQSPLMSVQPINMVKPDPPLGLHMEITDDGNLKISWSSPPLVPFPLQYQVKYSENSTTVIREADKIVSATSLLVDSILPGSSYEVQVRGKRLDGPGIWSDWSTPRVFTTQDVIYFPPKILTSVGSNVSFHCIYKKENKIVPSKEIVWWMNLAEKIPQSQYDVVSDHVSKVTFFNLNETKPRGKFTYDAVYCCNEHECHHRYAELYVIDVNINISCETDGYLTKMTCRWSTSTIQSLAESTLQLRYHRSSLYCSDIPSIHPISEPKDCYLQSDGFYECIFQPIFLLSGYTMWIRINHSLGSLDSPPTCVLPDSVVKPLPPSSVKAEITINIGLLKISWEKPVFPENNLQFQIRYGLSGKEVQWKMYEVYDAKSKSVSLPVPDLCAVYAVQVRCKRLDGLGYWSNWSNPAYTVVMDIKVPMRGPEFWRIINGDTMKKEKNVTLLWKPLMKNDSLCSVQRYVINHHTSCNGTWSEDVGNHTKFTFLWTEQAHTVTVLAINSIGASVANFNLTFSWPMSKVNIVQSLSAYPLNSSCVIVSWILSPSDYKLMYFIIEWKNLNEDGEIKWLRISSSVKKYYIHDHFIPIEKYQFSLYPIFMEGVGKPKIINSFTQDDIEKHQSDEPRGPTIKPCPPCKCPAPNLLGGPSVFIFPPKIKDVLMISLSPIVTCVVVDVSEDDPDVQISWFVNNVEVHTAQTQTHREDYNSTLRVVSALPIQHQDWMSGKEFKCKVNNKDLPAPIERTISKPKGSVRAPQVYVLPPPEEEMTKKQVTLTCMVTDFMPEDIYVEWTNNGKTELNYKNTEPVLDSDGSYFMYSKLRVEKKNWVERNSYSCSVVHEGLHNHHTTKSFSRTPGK
Procedure: as §1

[3] = molecular target: T3, human LEPR CRH1 (D1,D2,D3)-MMH (human, UniProt P48357 22-427, limits assumed); test: Luminex, myc-captured LEPR domain
T3 construct: domain: CRH1-Ig (D1,D2,D3); Transiently expressed, captured from supernatant on anti-myc beads; also called CRH1-Ig (D1, D2, D3)
Procedure: Aliquots of microspheres with immobilized anti-myc monoclonal antibodies, prepared as described above, were added individually to 1 mL of the each of these protein supernatants. The microspheres were gently mixed, incubated for two hours at 25° C., washed twice with 1 mL of DBPS, centrifuged to remove the supernatant and finally resuspended in 1 mL of DPBS buffer. Forty-eight μL of anti-myc IgG coupled microspheres from individual reactions with full length human LEPR and with each of the human LEPR domain proteins were withdrawn and mixed together in 3.6 mL of PBS+20 mg/mL BSA+0.05% sodium azide (blocking buffer).
From this mixed pool, 75 μL of microspheres were plated per well on a 96 well filter plate (Millipore, Cat. No: MSBVN1250) and mixed with 25 μL of individual anti-human LEPR monoclonal antibodies (0.5 or 5 µg/mL), incubated for two hours at 25° C. and then washed twice with 200 μL of DPBS with 0.05% Tween 20 (washing buffer). […] After 30 minutes, the samples were washed twice with 200 μL of washing buffer and resuspended in 150 μL of wash buffer. The Median Fluorescence intensity (MFI) of the microspheres was measured in a Luminex Analyzer.

[4] = molecular target: T1, human LEPR extracellular domain …; test: SPR, captured mAb, 25C
Procedure: as §1

[5] = molecular target: T2, human LEPR extracellular domain …; test: SPR, captured mAb, 25C
Procedure: as §1

[6] = molecular target: T4, Macaca fascicularis LEPR extracellular domain expressed with a C-terminal myc-myc-hexahistidine tag … (Macaca fascicularis, UniProt Q9MYL0 22-837 (rhesus entry)); test: SPR, captured mAb, 37C
T4 construct: also called mfLEP.MMH
Procedure: as §1

[7] = molecular target: T4, Macaca fascicularis LEPR extracellular …; test: SPR, captured mAb, 25C
Procedure: as §1

Binder | 100 nM hLEPR-MMH Bound (RU) [1] | Kd [1] | koff [1] | kon [1] | t½ [1] | 100 nM hLEPR-mFc Bound (RU) [2] | Kd [2] | koff [2] | kon [2] | t½ [2] | 100 nM hLEPR-MMH Bound (RU) [4] | Kd [4] | koff [4] | kon [4] | t½ [4] | 100 nM hLEPR-mFc Bound (RU) [5] | Kd [5] | koff [5] | kon [5] | t½ [5] | other results
B1 | 73 RU | 20.7 nM | 0.000815 s⁻¹ | 39400 M⁻¹ s⁻¹ | 14 min | 148 RU | 1.26 nM | 0.000168 s⁻¹ | 133000 M⁻¹ s⁻¹ | 69 min | 54 RU | 8.08 nM | 0.000235 s⁻¹ | 29100 M⁻¹ s⁻¹ | 49 min | 116 RU | 0.964 nM | 6.82e-05 s⁻¹ | 70500 M⁻¹ s⁻¹ | 169 min | MFI [3]: 2060 MFI
B2 | 38 RU | 326 nM | 0.0168 s⁻¹ | 51300 M⁻¹ s⁻¹ | 0.7 min | 104 RU | 3.89 nM | 0.000608 s⁻¹ | 156000 M⁻¹ s⁻¹ | 19 min | 45 RU | 108 nM | 0.00478 s⁻¹ | 44200 M⁻¹ s⁻¹ | 2.4 min | 76 RU | 4.03 nM | 0.000492 s⁻¹ | 122000 M⁻¹ s⁻¹ | 23 min | 100 nM mfLEPR.MMH Bound (RU) [6]: 48 RU; Kd [6]: 264 nM; koff [6]: 0.019 s⁻¹; kon [6]: 71700 M⁻¹ s⁻¹; t½ [6]: 0.6 min; MFI [3]: 22 MFI; 100 nM mfLEP.MMH Bound (RU) [7]: 58 RU; Kd [7]: 82.4 nM; koff [7]: 0.00486 s⁻¹; kon [7]: 59000 M⁻¹ s⁻¹; t½ [7]: 2.4 min
B3 | 32 RU | 170 nM | 0.00576 s⁻¹ | 33800 M⁻¹ s⁻¹ | 2 min | 82 RU | 8.53 nM | 0.000598 s⁻¹ | 70200 M⁻¹ s⁻¹ | 19 min | 22 RU | 75.4 nM | 0.00226 s⁻¹ | 30000 M⁻¹ s⁻¹ | 5.1 min | 51 RU | 4.7 nM | 0.000244 s⁻¹ | 51900 M⁻¹ s⁻¹ | 47 min | MFI [3]: 6570 MFI
B4 | 21 RU | 121 nM | 0.00256 s⁻¹ | 21200 M⁻¹ s⁻¹ | 4.5 min | 34 RU | 12.8 nM | 0.000548 s⁻¹ | 42700 M⁻¹ s⁻¹ | 21 min | 16 RU | 52.5 nM | 0.000951 s⁻¹ | 18100 M⁻¹ s⁻¹ | 12 min | 20 RU | 6.48 nM | 0.000208 s⁻¹ | 32000 M⁻¹ s⁻¹ | 56 min | 100 nM mfLEPR.MMH Bound (RU) [6]: 30 RU; Kd [6]: 140 nM; koff [6]: 0.00354 s⁻¹; kon [6]: 25300 M⁻¹ s⁻¹; t½ [6]: 3.3 min; 100 nM mfLEP.MMH Bound (RU) [7]: 23 RU; Kd [7]: 58.3 nM; koff [7]: 0.00112 s⁻¹; kon [7]: 19300 M⁻¹ s⁻¹; t½ [7]: 10 min
